Measurements taken from the supplement of paper PMC7877785.
± gives the uncertainty stated by the source.

Experiment: self-splicing fitness, log relative to wild type (ln ratio); higher = more splicing; Tetrahymena group I intron in knt gene, E. coli kanamycin selection, DiMSum; sequences stand for … in CUCUCU…GGAGGGAAAAGUUAUCAGGCAUGCACCUGGUAGCUAGUCUUUAAACCAAUAGAUUGCAUCGGUUUAAAAGGCAAGACCGUCAAAUUGCGGGAAAGGGGUCAACAGCCGUUCAGUACCAAGUCUCAGGGGAAACUUUGAGAUGGCCUUGCAAAGGGUAUGGUAAUAAGCUGACGGACAUGGUCCUAACCACGCAGCCAAGUCCUAAGUCAACAGAUCUUCUGUUGAUAUGGAUGCAGUUCACAGACUAAAUGUCGGUCGGGGAAGAUGUAUUCUUCUCAUAAGAUAUAGUCGGACCUCUCCUUAAUGGGAGCUAGCGGAUGAAGUGAUGCAACACUGGAGCCGCUGGGAACUAAUUUGUAUGCGAAAGUAUAUUGAUUAGUUUUGGAGUACUCGUGGUCG
In short: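 Library with all eight P1ex-region intron nucleotides randomised, intron inside the knt kanamycin-resistance gene on pET-22b(+), in E. coli BL21(DE3). Cells grew overnight at 37°C or 30°C on LB agar with or without 25 μg/mL kanamycin (plus 100 μg/mL carbenicillin, 50 μM IPTG, 0.2% rhamnose), in six replicate transformations. Pooled colonies were amplicon-sequenced on Illumina HiSeq 2500. DiMSum fitness is the error-weighted combination of wild-type-normalised replicate fold changes, kanamycin versus none.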

For CGCAAGCAAUAUUACGAGUC, which “self-splicing fitness (ln)” value (30 °C) is on record?
Its value is -3.43 ± 0.13.

What about the “self-splicing fitness (ln)” value (37 °C) of the same sequence?
The value was -2.97 ± 0.19.

For CGCAAGCAAUAUUACGAUCU, which “self-splicing fitness (ln)” value (30 °C) is on record?
The value was -1.61 ± 0.073.

What about the “self-splicing fitness (ln)” value (37 °C) of the same sequence?
The value was -0.39 ± 0.085.

For CGCAAGCAAUAUUACGCAAC, which “self-splicing fitness (ln)” value (30 °C) is on record?
Its value is -3.19 ± 0.36.

And the “self-splicing fitness (ln)” value (37 °C)?
The value was -3.11 ± 0.37.

With CGCAAGCAAUAUUACGCACC as the sequence, how does the “self-splicing fitness (ln)” value (30 °C) read?
The value was -1.54 ± 0.29.

And the “self-splicing fitness (ln)” value (37 °C)?
The value was -0.0713 ± 0.4.

For CGCAAGCAAUAUUACGCAGU, which “self-splicing fitness (ln)” value (30 °C) is on record?
Its value is -3.23 ± 0.17.

What about the “self-splicing fitness (ln)” value (37 °C) of the same sequence?
Its value is -2.62 ± 0.21.

Which results are given for CGCAAGCAAUAUUACGCCCG?
self-splicing fitness (ln) (30 °C): -1.22 ± 0.21; self-splicing fitness (ln) (37 °C): -1.93 ± 0.31

Which “self-splicing fitness (ln)” value (30 °C) does the source give for CGCAAGCAAUAUUACGCGAA here?
Its value is -3.58 ± 0.16.

And the “self-splicing fitness (ln)” value (37 °C)?
The value was -1.87 ± 0.13.

Which “self-splicing fitness (ln)” value (37 °C) does the source give for CGCAAGCAAUAUUACGCUAC here?
Its value is -2.82 ± 0.48.

What does the source list for CGCAAGCAAUAUUACGGAAU?
self-splicing fitness (ln) (30 °C): -3.63 ± 0.15; self-splicing fitness (ln) (37 °C): -2.77 ± 0.18

Which “self-splicing fitness (ln)” value (30 °C) does the source give for CGCAAGCAAUAUUACGGACA here?
The value was -0.905 ± 0.14.

And the “self-splicing fitness (ln)” value (37 °C)?
The value was -0.195 ± 0.14.

Which “self-splicing fitness (ln)” value (30 °C) does the source give for CGCAAGCAAUAUUACGGCGG here?
The value was -0.329 ± 0.073.

What about the “self-splicing fitness (ln)” value (37 °C) of the same sequence?
Its value is 0.31 ± 0.09.

Which “self-splicing fitness (ln)” value (30 °C) does the source give for CGCAAGCAAUAUUACGUAAC here?
The value was -3.76 ± 0.23.

What about the “self-splicing fitness (ln)” value (37 °C) of the same sequence?
Its value is -2.31 ± 0.19.

For CGCAAGCAAUAUUACGUAUC, which “self-splicing fitness (ln)” value (30 °C) is on record?
Its value is -3.14 ± 0.13.

And the “self-splicing fitness (ln)” value (37 °C)?
Its value is -2.33 ± 0.19.

With CGCAAGCAAUAUUACGUCAC as the sequence, how does the “self-splicing fitness (ln)” value (30 °C) read?
Its value is -3.45 ± 0.21.

And the “self-splicing fitness (ln)” value (37 °C)?
Its value is -2.12 ± 0.23.

With CGCAAGCAAUAUUACGUGAC as the sequence, how does the “self-splicing fitness (ln)” value (30 °C) read?
The value was -2.74 ± 0.2.

And the “self-splicing fitness (ln)” value (37 °C)?
The value was -2.5 ± 0.3.

What does the source list for CGCAAGCAAUAUUACGUUCA?
self-splicing fitness (ln) (30 °C): -1.33 ± 0.1; self-splicing fitness (ln) (37 °C): -0.636 ± 0.098

For CGCCAGCAAUAUUACGAACA, which “self-splicing fitness (ln)” value (30 °C) is on record?
The value was -3.55 ± 0.26.

And the “self-splicing fitness (ln)” value (37 °C)?
Its value is -0.716 ± 0.11.

With CGCCAGCAAUAUUACGAUUA as the sequence, how does the “self-splicing fitness (ln)” value (30 °C) read?
The value was -2.37 ± 0.15.

What about the “self-splicing fitness (ln)” value (37 °C) of the same sequence?
The value was -2.68 ± 0.21.

For CGCCAGCAAUAUUACGCAAC, which “self-splicing fitness (ln)” value (30 °C) is on record?
The value was -3.25 ± 0.27.

What about the “self-splicing fitness (ln)” value (37 °C) of the same sequence?
The value was -3.44 ± 0.42.

What does the source list for CGCCAGCAAUAUUACGCACG?
self-splicing fitness (ln) (30 °C): -1.66 ± 0.11; self-splicing fitness (ln) (37 °C): -1.47 ± 0.17

For CGCCAGCAAUAUUACGCAGC, which “self-splicing fitness (ln)” value (30 °C) is on record?
The value was -2.96 ± 0.34.

What about the “self-splicing fitness (ln)” value (37 °C) of the same sequence?
Its value is -2.4 ± 0.38.

Which results are given for CGCCAGCAAUAUUACGCAGG?
self-splicing fitness (ln) (30 °C): -2.06 ± 0.2; self-splicing fitness (ln) (37 °C): -2.56 ± 0.26

Which results are given for CGCCAGCAAUAUUACGCCCU?
self-splicing fitness (ln) (30 °C): -1.93 ± 0.14; self-splicing fitness (ln) (37 °C): -0.637 ± 0.13

For CGCCAGCAAUAUUACGCGUC, which “self-splicing fitness (ln)” value (30 °C) is on record?
Its value is -3.41 ± 0.17.

And the “self-splicing fitness (ln)” value (37 °C)?
Its value is -2.33 ± 0.15.

What does the source list for CGCCAGCAAUAUUACGGAGU?
self-splicing fitness (ln) (30 °C): -3.79 ± 0.12; self-splicing fitness (ln) (37 °C): -2.7 ± 0.13

For CGCCAGCAAUAUUACGGCCA, which “self-splicing fitness (ln)” value (30 °C) is on record?
The value was -0.294 ± 0.11.

What about the “self-splicing fitness (ln)” value (37 °C) of the same sequence?
Its value is 0.0865 ± 0.13.

Which “self-splicing fitness (ln)” value (30 °C) does the source give for CGCCAGCAAUAUUACGGGCU here?
The value was -3.79 ± 0.18.

And the “self-splicing fitness (ln)” value (37 °C)?
Its value is -2.04 ± 0.12.

For CGCCAGCAAUAUUACGUACU, which “self-splicing fitness (ln)” value (30 °C) is on record?
The value was -2.58 ± 0.16.

And the “self-splicing fitness (ln)” value (37 °C)?
The value was -2.02 ± 0.2.

Which results are given for CGCCAGCAAUAUUACGUGUU?
self-splicing fitness (ln) (30 °C): -3.08 ± 0.14; self-splicing fitness (ln) (37 °C): -3.21 ± 0.18

Which “self-splicing fitness (ln)” value (37 °C) does the source give for CGCGAGCAAUAUUACGAAGA here?
The value was -0.985 ± 0.39.

For CGCGAGCAAUAUUACGAGCU, which “self-splicing fitness (ln)” value (30 °C) is on record?
Its value is -3.72 ± 0.37.

What about the “self-splicing fitness (ln)” value (37 °C) of the same sequence?
The value was -2.22 ± 0.27.

Which “self-splicing fitness (ln)” value (30 °C) does the source give for CGCGAGCAAUAUUACGAGUG here?
The value was -3.46 ± 0.31.

And the “self-splicing fitness (ln)” value (37 °C)?
The value was -1.78 ± 0.2.

Which “self-splicing fitness (ln)” value (30 °C) does the source give for CGCGAGCAAUAUUACGAGUU here?
The value was -3.3 ± 0.2.

And the “self-splicing fitness (ln)” value (37 °C)?
The value was -3.19 ± 0.26.

Which “self-splicing fitness (ln)” value (30 °C) does the source give for CGCGAGCAAUAUUACGAUCA here?
The value was -2.91 ± 0.19.

What about the “self-splicing fitness (ln)” value (37 °C) of the same sequence?
Its value is -2.04 ± 0.16.

What does the source list for CGCGAGCAAUAUUACGCAAA?
self-splicing fitness (ln) (30 °C): -2.95 ± 0.38; self-splicing fitness (ln) (37 °C): -3.4 ± 0.43

With CGCGAGCAAUAUUACGCACA as the sequence, how does the “self-splicing fitness (ln)” value (30 °C) read?
The value was -2.3 ± 0.19.

And the “self-splicing fitness (ln)” value (37 °C)?
The value was -1.16 ± 0.18.

With CGCGAGCAAUAUUACGCCAC as the sequence, how does the “self-splicing fitness (ln)” value (30 °C) read?
The value was -3.41 ± 0.47.

With CGCGAGCAAUAUUACGCCAU as the sequence, how does the “self-splicing fitness (ln)” value (30 °C) read?
The value was -3.53 ± 0.24.

And the “self-splicing fitness (ln)” value (37 °C)?
Its value is -3.92 ± 0.42.

Which results are given for CGCGAGCAAUAUUACGCCUC?
self-splicing fitness (ln) (30 °C): -1.53 ± 0.44; self-splicing fitness (ln) (37 °C): -1.38 ± 0.43

Which results are given for CGCGAGCAAUAUUACGCGGG?
self-splicing fitness (ln) (30 °C): -3.4 ± 0.17; self-splicing fitness (ln) (37 °C): -3.6 ± 0.25

With CGCGAGCAAUAUUACGCUAG as the sequence, how does the “self-splicing fitness (ln)” value (37 °C) read?
Its value is -1.39 ± 0.29.

With CGCGAGCAAUAUUACGCUCU as the sequence, how does the “self-splicing fitness (ln)” value (37 °C) read?
The value was -0.833 ± 0.33.

For CGCGAGCAAUAUUACGCUUC, which “self-splicing fitness (ln)” value (37 °C) is on record?
The value was -1.44 ± 0.45.

With CGCGAGCAAUAUUACGGACA as the sequence, how does the “self-splicing fitness (ln)” value (37 °C) read?
Its value is -0.573 ± 0.34.

With CGCGAGCAAUAUUACGGAGU as the sequence, how does the “self-splicing fitness (ln)” value (30 °C) read?
The value was -4.33 ± 0.46.

What about the “self-splicing fitness (ln)” value (37 °C) of the same sequence?
The value was -2.08 ± 0.21.

For CGCGAGCAAUAUUACGGAUU, which “self-splicing fitness (ln)” value (30 °C) is on record?
Its value is -3.12 ± 0.17.

What about the “self-splicing fitness (ln)” value (37 °C) of the same sequence?
Its value is -2.51 ± 0.25.

What does the source list for CGCGAGCAAUAUUACGGCCG?
self-splicing fitness (ln) (30 °C): -3.16 ± 0.3; self-splicing fitness (ln) (37 °C): -1.35 ± 0.29

With CGCGAGCAAUAUUACGUAGC as the sequence, how does the “self-splicing fitness (ln)” value (30 °C) read?
Its value is -3.66 ± 0.3.

And the “self-splicing fitness (ln)” value (37 °C)?
The value was -2.5 ± 0.32.

For CGCGAGCAAUAUUACGUAUG, which “self-splicing fitness (ln)” value (30 °C) is on record?
The value was -1.62 ± 0.13.

And the “self-splicing fitness (ln)” value (37 °C)?
The value was -1.2 ± 0.19.

For CGCGAGCAAUAUUACGUCAA, which “self-splicing fitness (ln)” value (30 °C) is on record?
Its value is -2.88 ± 0.31.
